We go through 1 substance from US20190300580A1.

By % inhibition is commonly meant how much of the control response was suppressed.

In experiment [1] the target is Dengue serotype 3 VLP (The Native Antigen Company), wild type (dengue virus serotype 3). Briefly: competition ELISA on VLP, unlabelled 4G2 at 10 micrograms per ml against biotinylated 4G2.
The target of experiment [2] is wild type dengue serotype 2 exodomain, HEK293-produced (The Native Antigen Company DENV2-ENV) (dengue virus serotype 2). Briefly: ELISA, His-tagged exodomain captured by anti-His-tag antibody, 4G2 titrated (FIG. 5a). For orientation: An ELISA detects its analyte on a solid surface through an enzyme-linked reagent.
For experiment [3], the target named is wild type dengue serotype 4 exodomain (The Native Antigen Company DENV4-ENV) (dengue virus serotype 4). The experiment is described as above.

Substance “fusion-loop antibody 4G2 (The Native Antigen Company AbFLAVENV-4G2)” gave a % inhibition in experiment [1] of 80%. Also, the low antibody concentration still giving a signal above background in experiment [2] and in experiment [3] was 250 pg/mL in each case.
